Values quoted from earlier work, collected in paper PMC9914670.
pKd: −log10 of the molar value.

Legend:
[1] = biological target: ATP5A1/5B complex (Homo sapiens) (UniProt P25705); experiment: QCM
[2] = biological target: TLR4/MD2 complex (Homo sapiens) (UniProt O00206); experiment: QCM
[3] = biological target: ATP5A1 (F1 ATPase alpha subunit) (Homo sapiens) (UniProt P25705); experiment: ELISA
[4] = biological target: ATP5A1/5B complex (Homo sapiens) (UniProt P25705); experiment: ELISA
[5] = biological target: ATP5B (F1 ATPase beta subunit) (Homo sapiens) (UniProt P06576); experiment: ELISA
Chain of ATP5B (F1 ATPase beta subunit) (Homo sapiens) (P06576 48-529): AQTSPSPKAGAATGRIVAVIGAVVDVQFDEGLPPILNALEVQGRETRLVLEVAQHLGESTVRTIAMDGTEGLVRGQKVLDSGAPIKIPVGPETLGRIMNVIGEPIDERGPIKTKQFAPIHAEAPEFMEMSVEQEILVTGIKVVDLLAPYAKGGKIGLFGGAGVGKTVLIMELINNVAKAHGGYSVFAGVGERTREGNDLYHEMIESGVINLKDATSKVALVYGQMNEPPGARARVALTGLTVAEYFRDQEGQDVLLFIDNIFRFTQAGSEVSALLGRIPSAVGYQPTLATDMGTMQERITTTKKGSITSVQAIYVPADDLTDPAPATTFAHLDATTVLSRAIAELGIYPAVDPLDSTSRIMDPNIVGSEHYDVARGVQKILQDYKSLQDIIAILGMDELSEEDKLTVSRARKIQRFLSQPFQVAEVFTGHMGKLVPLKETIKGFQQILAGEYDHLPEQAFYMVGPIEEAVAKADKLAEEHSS

Chain of Prothymosin alpha (P06302 2-112): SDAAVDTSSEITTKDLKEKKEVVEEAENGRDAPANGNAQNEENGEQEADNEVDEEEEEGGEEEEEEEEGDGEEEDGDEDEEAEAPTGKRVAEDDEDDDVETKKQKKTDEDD
Chain of ATP5A1/5B complex (Homo sapiens) (P25705 44-553, chain 1 of 2): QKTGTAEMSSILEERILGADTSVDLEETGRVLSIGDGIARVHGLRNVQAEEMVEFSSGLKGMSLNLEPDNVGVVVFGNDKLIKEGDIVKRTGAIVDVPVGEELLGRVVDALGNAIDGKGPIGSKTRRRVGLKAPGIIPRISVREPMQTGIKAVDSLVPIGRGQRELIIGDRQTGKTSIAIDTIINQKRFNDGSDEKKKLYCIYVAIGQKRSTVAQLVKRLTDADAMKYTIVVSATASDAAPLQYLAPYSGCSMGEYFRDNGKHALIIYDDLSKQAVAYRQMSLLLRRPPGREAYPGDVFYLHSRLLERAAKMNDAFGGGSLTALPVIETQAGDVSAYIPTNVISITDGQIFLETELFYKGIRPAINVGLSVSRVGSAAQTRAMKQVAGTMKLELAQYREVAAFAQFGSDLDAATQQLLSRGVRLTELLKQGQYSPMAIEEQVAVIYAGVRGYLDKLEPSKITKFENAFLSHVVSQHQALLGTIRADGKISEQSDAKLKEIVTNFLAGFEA
Chain of ATP5A1/5B complex (Homo sapiens) (P06576 48-529, chain 2 of 2, further chain): as the sequence (P06576 48-529) above
Chain of ATP5A1 (F1 ATPase alpha subunit) (Homo sapiens) (P25705 44-553): as the sequence (P25705 44-553, chain 1 of 2) above
Chain of TLR4/MD2 complex (Homo sapiens) (O00206 24-839, chain 1 of 2): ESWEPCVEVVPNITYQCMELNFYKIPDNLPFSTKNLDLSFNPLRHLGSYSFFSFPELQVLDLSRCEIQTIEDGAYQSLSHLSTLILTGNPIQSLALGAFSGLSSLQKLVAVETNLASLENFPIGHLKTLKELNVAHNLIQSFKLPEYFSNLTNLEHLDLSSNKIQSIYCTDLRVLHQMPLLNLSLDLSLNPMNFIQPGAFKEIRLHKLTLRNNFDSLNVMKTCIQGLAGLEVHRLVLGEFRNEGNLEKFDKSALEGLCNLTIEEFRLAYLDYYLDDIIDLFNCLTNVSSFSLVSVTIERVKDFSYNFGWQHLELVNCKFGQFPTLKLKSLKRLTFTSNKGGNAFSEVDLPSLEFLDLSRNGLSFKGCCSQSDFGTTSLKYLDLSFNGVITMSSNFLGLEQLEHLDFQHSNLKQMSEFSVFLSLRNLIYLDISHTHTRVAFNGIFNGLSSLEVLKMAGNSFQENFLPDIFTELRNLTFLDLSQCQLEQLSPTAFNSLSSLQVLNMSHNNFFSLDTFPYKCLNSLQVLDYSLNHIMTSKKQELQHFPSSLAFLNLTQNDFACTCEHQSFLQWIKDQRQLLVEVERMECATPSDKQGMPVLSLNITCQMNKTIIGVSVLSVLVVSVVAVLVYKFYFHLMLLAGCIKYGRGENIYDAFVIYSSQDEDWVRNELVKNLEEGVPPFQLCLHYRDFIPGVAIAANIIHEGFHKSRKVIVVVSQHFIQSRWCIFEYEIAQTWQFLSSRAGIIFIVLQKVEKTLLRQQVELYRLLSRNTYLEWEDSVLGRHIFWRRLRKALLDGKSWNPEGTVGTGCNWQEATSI
Chain of TLR4/MD2 complex (Homo sapiens) (Q9Y6Y9 19-160, chain 2 of 2, further chain): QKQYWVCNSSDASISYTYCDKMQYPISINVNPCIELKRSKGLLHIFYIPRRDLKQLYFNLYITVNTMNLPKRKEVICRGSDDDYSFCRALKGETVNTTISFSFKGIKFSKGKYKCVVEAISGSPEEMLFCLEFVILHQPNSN

- pKd [1]: 7.55
- pKd [2]: 4.79
- pKd [3]: 7.17
- pKd [4]: 7.25
- pKd [5]: 6.62
Substance: Prothymosin alpha (from UniProt P06302)
